In patent US10793872B2, “HPPD variants and methods of use” (Bayer CropScience AG, priority 2012, dated 2020):
Numbering of substitutions follows the chain as printed. Read-outs that look alike come from different tables or passages of the source.

Columns and labels:
[1] = target: T1, Pseudomonas fluorescens HPPD variant PfHPPDEvo36 (serine for glutamic acid at 335, serine for tryptophan at 336, threonine for lysine at 339, glutamine for alanine at 340 relative to PfG336W), SEQ ID NO:7 (Pseudomonas sp., UniProt P80064, A339Q/E334S/G335S/K338T); test: biochemical
T1 construct: made in house; host or cells: E. coli (DH5alpha for library screening)
T1 sequence (P80064 other isoform, or with tags, fused parts or gaps with the stated changes): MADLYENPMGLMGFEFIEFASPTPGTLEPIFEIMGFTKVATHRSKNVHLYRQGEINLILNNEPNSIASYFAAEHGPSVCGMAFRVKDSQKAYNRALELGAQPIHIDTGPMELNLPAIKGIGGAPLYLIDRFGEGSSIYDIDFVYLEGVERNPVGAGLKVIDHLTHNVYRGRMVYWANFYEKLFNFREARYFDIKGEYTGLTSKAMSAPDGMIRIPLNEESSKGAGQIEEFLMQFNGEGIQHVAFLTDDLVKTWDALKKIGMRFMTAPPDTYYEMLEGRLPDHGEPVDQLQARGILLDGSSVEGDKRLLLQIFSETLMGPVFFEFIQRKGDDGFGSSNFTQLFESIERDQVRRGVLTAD

[2] = target: T2, Pseudomonas fluorescens HPPD variant CO210d10, SEQ ID NO:9 (Pseudomonas sp., UniProt P80064, E334P/G335S/K338T); test: biochemical; details: read-out: pI50 (converted)
T2 construct: CO210d10; […]; Ala + His6 directly after the start Met (N); made in house; host or cells: E. coli
T2 sequence (P80064 other isoform, or with tags, fused parts or gaps with the stated changes): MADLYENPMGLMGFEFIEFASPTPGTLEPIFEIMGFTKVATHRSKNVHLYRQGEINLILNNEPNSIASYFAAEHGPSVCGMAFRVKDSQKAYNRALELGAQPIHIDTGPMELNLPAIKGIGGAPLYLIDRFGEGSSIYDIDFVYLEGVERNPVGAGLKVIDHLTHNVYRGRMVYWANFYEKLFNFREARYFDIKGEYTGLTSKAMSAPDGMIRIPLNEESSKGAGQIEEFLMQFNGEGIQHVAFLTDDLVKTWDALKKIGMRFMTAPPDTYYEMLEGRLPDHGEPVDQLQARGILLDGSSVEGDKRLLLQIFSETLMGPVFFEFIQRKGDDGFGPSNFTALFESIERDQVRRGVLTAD

[3] = target: T3, Pseudomonas fluorescens HPPD variant CO212f3, SEQ ID NO:10 (Pseudomonas sp., UniProt P80064, A339V/E334G/G335W); test: biochemical; details: read-out: pI50 (converted)
T3 construct: CO212f3; […]; Ala + His6 directly after the start Met (N); made in house; host or cells: E. coli
T3 sequence (P80064 other isoform, or with tags, fused parts or gaps with the stated changes): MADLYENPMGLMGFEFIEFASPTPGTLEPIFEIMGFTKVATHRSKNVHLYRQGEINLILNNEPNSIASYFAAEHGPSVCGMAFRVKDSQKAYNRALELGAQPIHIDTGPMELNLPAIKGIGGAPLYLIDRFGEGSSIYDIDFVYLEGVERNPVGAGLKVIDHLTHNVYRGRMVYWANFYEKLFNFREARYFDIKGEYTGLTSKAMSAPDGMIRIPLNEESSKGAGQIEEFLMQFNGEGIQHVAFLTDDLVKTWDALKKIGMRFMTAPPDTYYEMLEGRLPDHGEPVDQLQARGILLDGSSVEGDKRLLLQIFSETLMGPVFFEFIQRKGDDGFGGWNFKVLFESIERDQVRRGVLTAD

[4] = target: T4, Pseudomonas fluorescens HPPD variant C024H11, SEQ ID NO:5 (Pseudomonas sp., UniProt P80064, G335W/P214L); test: biochemical
T4 construct: C024H11; […]; made in house; host or cells: E. coli (DH5alpha for library screening)
T4 sequence (P80064 other isoform, or with tags, fused parts or gaps with the stated changes): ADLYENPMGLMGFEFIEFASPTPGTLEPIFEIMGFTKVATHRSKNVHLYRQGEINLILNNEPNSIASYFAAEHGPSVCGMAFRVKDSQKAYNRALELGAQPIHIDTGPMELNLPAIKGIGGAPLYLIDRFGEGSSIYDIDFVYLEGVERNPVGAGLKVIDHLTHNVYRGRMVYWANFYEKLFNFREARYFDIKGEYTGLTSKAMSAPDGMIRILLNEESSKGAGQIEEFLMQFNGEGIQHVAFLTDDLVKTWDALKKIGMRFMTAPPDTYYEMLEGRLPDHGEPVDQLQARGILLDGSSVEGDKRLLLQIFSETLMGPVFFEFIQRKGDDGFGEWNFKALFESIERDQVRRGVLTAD

[5] = target: T5, Pseudomonas fluorescens HPPD variant PfHPPDEvo36 (serine for glutamic acid at 335, serine for tryptophan at 336, threonine for lysine at 339, glutamine for alan (Pseudomonas sp., UniProt P80064, A339Q/E334S/G335S/K338T)); assay type: biochemical
T5 construct: made in house; host or cells: E. coli (DH5alpha for library screening)
Method: The theoretical diversity of this library was 640. Screening was carried out as described in Example 3.

[6] = target: Pseudomonas aeruginosa HPPD Axmi305H (SEQ ID NO:57) variant Axmi305H-Evo41 (Pseudomonas aeruginosa, UniProt Q9I576, A342Q/E337P/G338W/K341A); test: biochemical
Pseudomonas aeruginosa HPPD Axmi305H (SEQ ID NO:57) variant Axmi305H-Evo41, sequence (Q9I576 whole entry E337P/G338W/K341A/A342Q): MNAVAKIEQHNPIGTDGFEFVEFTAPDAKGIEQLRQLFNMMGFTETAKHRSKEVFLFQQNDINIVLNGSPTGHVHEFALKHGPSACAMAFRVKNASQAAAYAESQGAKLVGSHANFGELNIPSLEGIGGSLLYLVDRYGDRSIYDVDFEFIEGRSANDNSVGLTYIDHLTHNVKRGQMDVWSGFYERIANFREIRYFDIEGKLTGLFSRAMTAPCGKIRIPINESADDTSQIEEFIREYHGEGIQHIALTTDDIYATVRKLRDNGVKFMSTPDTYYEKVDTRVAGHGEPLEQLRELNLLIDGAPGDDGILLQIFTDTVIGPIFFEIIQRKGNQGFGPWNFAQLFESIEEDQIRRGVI
Method: This method is called the HGD assay.
The mutants generated by this approach were transformed into B121-DE3* cells and grown to saturation in LB media. […] By this method, active HPPD enzyme will produce a brown pigment after approximately 24 hours of growth on plates.

[7] = target: Pseudomonas aeruginosa (strain ATX22717) HPPD Axmi305H, native, SEQ ID NO:57 (Pseudomonas aeruginosa, UniProt Q9I576); test: HPPD coupling assay, Axmi305H
Pseudomonas aeruginosa (strain ATX22717) HPPD Axmi305H, native, SEQ ID NO:57, sequence (Q9I576 whole entry): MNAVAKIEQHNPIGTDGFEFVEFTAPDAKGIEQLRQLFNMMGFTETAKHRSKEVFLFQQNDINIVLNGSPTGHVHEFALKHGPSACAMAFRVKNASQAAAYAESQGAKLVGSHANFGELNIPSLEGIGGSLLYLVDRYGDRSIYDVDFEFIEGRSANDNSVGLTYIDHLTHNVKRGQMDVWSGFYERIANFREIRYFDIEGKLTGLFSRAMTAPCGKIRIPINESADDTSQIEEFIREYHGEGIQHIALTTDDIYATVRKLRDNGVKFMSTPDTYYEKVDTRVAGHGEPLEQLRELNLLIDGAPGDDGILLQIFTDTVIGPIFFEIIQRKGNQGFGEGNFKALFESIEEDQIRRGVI

[8] = target: T3, Pseudomonas fluorescens HPPD variant CO212f3, SEQ ID NO:10; test: biochemical
[9] = target: Pseudomonas fluorescens HPPD variant PfHPPDEvo40, SEQ ID NO:8 (Pseudomonas sp., UniProt P80064, A339E/E334P/G335S); test: HPPD inhibition, HPLC based assay, PfHPPDEvo40
HPPD [10] = details: reaction stopped after 24 min
Method: Kon=K1 equals the association rate constant of the […] and Koff=K−1 equals the rate constant of the enzyme-inhibitor complex dissociation. Ki defines the inhibition constant. For the determination of the specific activity of the enzymes, samples were incubated, and the reaction was stopped after 24 min. The specific activity was estimated by μg of protein.
For the determination of the specific activity of the enzymes, samples were incubated, and the reaction was stopped after 24 min. The specific activity was estimated by μg of protein.
Samples were incubated, and the reaction was stopped after 24 min. The specific activity was estimated by μg of protein.

[11] = tested on: E. coli cells expressing HPPDs; test: Plating whole E. coli cells expressing HPPDs on media containing HPPD inhibitors; assay type: cell-based; details: whole E. coli cells on plates with 250 uM inhibitor, 18 hours at 37 degrees C
Method: Variants were also tested by plating whole E. coli cells expressing HPPDs on media containing various HPPD inhibitors. For these experiments, DH5alpha cells containing HPPD expressing plasmids were grown in LB media+kanamycin until an OD600 nm=0.5 was reached. Serial dilutions of cells were prepared in LB media+kanamycin corresponding to OD600 values of 0.016, 0.008, 0.004, and 0.002. Ten microliters of each dilution were plated in triplicate on plates containing no HPPD inhibitor, 250 uM TBT, 250 uM DKN and 250 uM mesotrione (MST). Plates were incubated for 18 hours at 37 degrees C.

Soybean plants [12] = test: Spray test of soybean plants expressing HPPD for tolerance to tembotrione; assay type: in vivo; details: tembotrione (LAUDIS SC) 184 grams/hectare, one week after spraying; for Number of plants rated +: + = completely bleached; for Number of plants rated ++ or +++: slight tolerance or very little effect
Method: Soybean plants expressing an HPPD inhibitor tolerant enzyme of the present invention, along with a gene conferring tolerance to glyphosate and a gene conferring tolerance to glufosinate, were tested for tolerance to tembotrione. A DeVries Tracker Sprayer was calibrated prior to each spraying. The chemical formulation used for tembotrione testing was LAUDIS® SC formulation. Spray tests were conducted using 184 grams/hectare; 34.5% TBT. Tolerance was evaluated one week after spraying. A rating of “+” was assigned to plants that were completely bleached in the actively growing tissue. A rating of “++” was assigned to plants having slight tolerance, i.e., the newest plant tissues had some green and are not bleached completely. A rating of “+++” was assigned to plants showing very little effect from spray, i.e., some chlorosis or very slight bleaching was present.

Soybean plants [13] = test: Field trials of soybean events expressing HPPD, post-emergent HPPD inhibitor application, phytotoxicity; assay type: in vivo; details: for events exhibiting less than or equal to 20% average phytotoxicity: T1 events, evaluated after 7 days; for events exhibiting less than or equal to 20% average phytotoxicity / events exhibiting less than or equal to 25% maximum phytotoxicity: post-emergent tembotrione 200 g ai/ha; for events exhibiting less than or equal to 25% maximum phytotoxicity: field trial United States (Minnesota); for events exhibiting less than or equal to 25% maximum phytotoxicity / events exhibiting less than or equal to 18% maximum phytotoxicity: T2; for events exhibiting less than or equal to 18% maximum phytotoxicity: field trial in Argentina, post-emergent isoxaflutole 210 g ai/ha
Source text: The plants were sprayed at the v2-v3 stage with 1× glufosinate. Five days after treatment with glufosinate, the surviving plants were sprayed with 2× tembotrione, 2× mesotrione, or 2× isoxaflutole and evaluated for phytotoxicity after 7 days.

HPPD [14] = tested on: HPPD
Method: For Km and Vmax value determinations the initial rates of the HPPD reaction at different substrate concentrations were determined from plots of HGA formed versus time and fitted to the Michaelis-Menten equation for unireactant enzymes using the ID Business Solutions Ltd. (www.idbs.com) XLfit software suite.
In below given Table 1, “Km” (Michaelis-Menten constant) means the kinetic parameter that is used to characterize an enzyme, and it is defined as the concentration of substrate that permits half maximal rate of the reaction. Km is further defined as the substrate concentration at which the reaction rate reaches half of its maximum value (Vmax/2) where Vmax has the meaning of being the maximum velocity of the reaction.

HPPD [15] = details: Table 14
[16] = PfHPPDEvo36 extract titrated on 250 uM inhibitor
[17] = spectrophotometric method, Table 6

CS(=O)(=O)c1cc(C(F)(F)F)ccc1C(=O)C(C#N)C(=O)C1CC1 (centres unmarked) [Diketonitrile, 2-cyano-3-cyclopropyl-1-(2-methylsulphonyl-4-trifluoromethylphenyl)-propane-1,3-dione]
IC50 [1]: 31.6 µM
IC50 [2]: 50.1 µM
IC50 [3]: 20 µM
IC50 [4]: 100 µM
improved tolerance compared to PfG336W [5]: 16 ×
improved tolerance compared to PfHPPDEvo33 [5]: 4 ×
IC50 [6]: 10 µM

CS(=O)(=O)c1ccc(C(=O)C2C(=O)CCCC2=O)c([N+](=O)[O-])c1 [Mesotrione, 2-[4-(methylsulfonyl)-2-nitrobenzoyl]-1,3-cyclohexanedione]
IC50 [2]: 2 µM
IC50 [3]: 3.98 µM
IC50 [7]: 0.2 µM

CS(=O)(=O)c1ccc(C(=O)C2C(=O)CCCC2=O)c(Cl)c1COCC(F)(F)F [Tembotrione, 2-[2-chloro-4-(methylsulfonyl)-3-[(2,2,2,-tri-fluoroethoxy)methyl]benzoyl]-1,3-cyclo-hexanedione]
IC50 [4]: 15.8 µM
IC50 [8]: 15.8 µM
improved tolerance compared to PfG336W [5, 16]: 16 ×
improved tolerance compared to PfHPPDEvo33 [5, 16]: 4 ×
IC50 [9]: 10 µM

B1: PfHPPDEvo40: HPPD variant SEQ ID NO:8 (protein)
chain: MADLYENPMGLMGFEFIEFASPTPGTLEPIFEIMGFTKVATHRSKNVHLYRQGEINLILNNEPNSIASYFAAEHGPSVCGMAFRVKDSQKAYNRALELGAQPIHIDTGPMELNLPAIKGIGGAPLYLIDRFGEGSSIYDIDFVYLEGVERNPVGAGLKVIDHLTHNVYRGRMVYWANFYEKLFNFREARYFDIKGEYTGLTSKAMSAPDGMIRIPLNEESSKGAGQIEEFLMQFNGEGIQHVAFLTDDLVKTWDALKKIGMRFMTAPPDTYYEMLEGRLPDHGEPVDQLQARGILLDGSSVEGDKRLLLQIFSETLMGPVFFEFIQRKGDDGFGPSNFKELFESIERDQVRRGVLTAD
modifications: HPPD mutant - PfHPPDEvo40
Specific activity (HPPD [10]; [17]): 0.42 Delta Absorbance/24 min/μg pro
tolerance to TBT and MST compared to PfG336W [11]: improved tolerance
Percent ++ or +++ (Soybean plants [12]): 31.4%
Number of plants rated + (Soybean plants [12]): 60
Number of plants rated ++ or +++ (Soybean plants [12]): 65

B2: PfG336W: Pseudomonas fluorescens HPPD mutant, glycine at position 336 replaced by tryptophan, SEQ ID NO:2 (protein)
chain: B1 chain with P335E, S336W, E340A
modifications: HPPD mutant - PfG336W
Specific activity (HPPD [10]; Table 1): 0.40 ΔE/24 min μg Protein
Specific activity (HPPD [10]; [17]): 0.4 Delta Absorbance/24 min/μg pro
Percent ++ or +++ (Soybean plants [12]): 7.12%
Number of plants rated + (Soybean plants [12]): 811
Number of plants rated ++ or +++ (Soybean plants [12]): 160
events exhibiting less than or equal to 20% average phytotoxicity (Soybean plants [13]): 0 out of 18
events exhibiting less than or equal to 25% maximum phytotoxicity (Soybean plants [13]): 1 out of 11
events exhibiting less than or equal to 18% maximum phytotoxicity (Soybean plants [13]): 1 out of 3

B3: PfHPPDEvo41: HPPD variant SEQ ID NO:16 (protein)
chain: B1 chain with S336W, K339A, E340Q
modifications: HPPD mutant - PfHPPDEvo41
Km (HPPD [14]; Table 9, same values as Table 5): 336 µM
Km (HPPD [14]; read-out: HPP Km, substrate HPP, Table 5): 336 µM
HPP Kcat (HPPD [14]; substrate HPP, Table 5): 1.1 s⁻¹
Specific activity (HPPD [10]; [17]): 0.44 Delta Absorbance/24 min/μg pro
tolerance to TBT and MST compared to PfG336W [11]: improved tolerance
Percent ++ or +++ (Soybean plants [12]): 32.75%
Number of plants rated + (Soybean plants [12]): 412
Number of plants rated ++ or +++ (Soybean plants [12]): 279
events exhibiting less than or equal to 20% average phytotoxicity (Soybean plants [13]): Nine out of 18
events exhibiting less than or equal to 25% maximum phytotoxicity (Soybean plants [13]): 7 out of 7
events exhibiting less than or equal to 18% maximum phytotoxicity (Soybean plants [13]): 5 out of 10
Km (HPPD [15]): 336 µM

B4: PfHPPDEvo36: HPPD variant SEQ ID NO:7; 335 serine, 336 serine, 339 threonine, 340 glutamine relative to PfG336W (protein)
chain: B1 chain with P335S, K339T, E340Q
modifications: HPPD mutant - PfHPPDEvo36
Specific activity (HPPD [10]; [17]): 0.82 Delta Absorbance/24 min/μg pro
Percent ++ or +++ (Soybean plants [12]): 20.45%
Number of plants rated + (Soybean plants [12]): 47
Number of plants rated ++ or +++ (Soybean plants [12]): 18
